Tests used:
Assay in all cases: two-hybrid library CCNG1;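 further: natural log of median RNA to DNA barcode read ratio; higher means stronger binding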
[1] = target: T1, 4H2673-bN
T1 chain: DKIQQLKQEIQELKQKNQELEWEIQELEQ

[2] = target: T2, 4H2702-bN
T2 chain: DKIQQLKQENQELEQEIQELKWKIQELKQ

[3] = target: T3, 4H3010-bN
T3 chain: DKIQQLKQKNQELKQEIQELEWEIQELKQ

[4] = target: T4, 4H3057-bN
T4 chain: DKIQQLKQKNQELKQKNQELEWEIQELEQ

[5] = target: T5, 4H3112-bN
T5 chain: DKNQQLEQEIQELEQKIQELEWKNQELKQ

[6] = target: T6, 4H3381-bH
T6 chain: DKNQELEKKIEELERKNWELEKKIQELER

[7] = target: T7, 4H3427-bN
T7 chain: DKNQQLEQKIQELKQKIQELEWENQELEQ

[8] = target: T8, 4H346-bN
T8 chain: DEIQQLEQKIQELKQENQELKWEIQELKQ

[9] = target: T9, 4H3926-bN
T9 chain: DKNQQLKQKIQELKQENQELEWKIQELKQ

[10] = target: T10, 4H4073-bN
T10 chain: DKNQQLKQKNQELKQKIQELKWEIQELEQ

[11] = target: T11, 4H457-bN
T11 chain: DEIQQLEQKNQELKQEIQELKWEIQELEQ

[12] = target: T12, 4H575-bN
T12 chain: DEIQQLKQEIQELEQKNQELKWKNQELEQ

[13] = target: T13, 4H683-bN
T13 chain: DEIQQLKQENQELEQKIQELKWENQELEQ

[14] = target: T14, 4H754-bN
T14 chain: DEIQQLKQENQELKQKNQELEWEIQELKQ

[15] = target: T15, 4H780-bN
T15 chain: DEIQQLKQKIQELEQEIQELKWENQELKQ

[16] = target: T16, 4H797-bN
T16 chain: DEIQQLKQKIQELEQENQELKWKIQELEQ

[17] = target: T17, 4H855-bN
T17 chain: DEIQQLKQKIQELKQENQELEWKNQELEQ

[18] = target: T18, 4H918-bN
T18 chain: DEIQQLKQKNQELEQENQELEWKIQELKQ

[19] = target: T19, 4H953-bN
T19 chain: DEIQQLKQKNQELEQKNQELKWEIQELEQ

[20] = target: T20, 4H968-bN
T20 chain: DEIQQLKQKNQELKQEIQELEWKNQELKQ

[21] = target: T21, P5bHq
T21 chain: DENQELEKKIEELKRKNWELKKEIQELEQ

[22] = target: T22, P6bHq
T22 chain: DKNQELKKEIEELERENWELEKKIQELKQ

[23] = target: T23, P7bHq
T23 chain: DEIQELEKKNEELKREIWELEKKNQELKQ

[24] = target: T24, P8bHq
T24 chain: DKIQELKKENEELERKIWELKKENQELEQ

[25] = target: T25, P9bHq
T25 chain: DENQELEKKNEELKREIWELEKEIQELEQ

[26] = target: T26, 4H491-bA
T26 chain: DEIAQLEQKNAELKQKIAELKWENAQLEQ

[27] = target: T27, O16-bN
T27 chain: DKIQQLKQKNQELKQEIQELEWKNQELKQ

B1: 4H2673-bN (peptide)
chain: DKIQQLKQEIQELKQKNQELEWEIQELEQ
In the case of B1, the interaction score [1] is reported as 0.657, the interaction score [2] is reported as -0.755 and the interaction score [3] is reported as 1.39. It also gave an interaction score [4] of -0.47, an interaction score [5] of -0.658 and an interaction score [6] of -0.468. The interaction score [7] was -1.55, the interaction score [8] was -0.543 and the interaction score [9] was -0.806. It also gave an interaction score [10] of -1.63, an interaction score [11] of -1.88 and an interaction score [12] of -1.53. For the same binder, the interaction score [13] was -0.954, the interaction score [14] was -1.07 and the interaction score [15] was -1.43. The interaction score [16] was -0.839, the interaction score [17] was -1.2 and the interaction score [18] was -1.57. For the same binder, the interaction score [19] was -1.21 and the interaction score [20] was -0.538.

B2: P5bHq (peptide)
chain: DENQELEKKIEELKRKNWELKKEIQELEQ
In the case of B2, the interaction score [21] is reported as -1.33, the interaction score [22] is reported as 0.519 and the interaction score [23] is reported as -0.58. For the same binder, the interaction score [24] was 0.944 and the interaction score [25] was -0.517.

B3: 4H491-bA (peptide)
chain: DEIAQLEQKNAELKQKIAELKWENAQLEQ
With B3 the interaction score [26] was -0.879 and the interaction score [27] was 0.749.

Source: publication PMC10397247
